Source: patent publication US20160244728A1, “CULTURE METHOD FOR PLURIPOTENT STEM CELLS AND KIT AND MEDIUM FOR CULTURE OF PLURIPOTENT STEM CELLS USED THEREIN” (FUJIFILM Corporation, priority 2013, published 2016)

What was measured:
[1] = Evaluation of adsorbability with respect to culture dish; format: physicochemical; conditions: FIG. 1; for adsorbability with respect to the plate (in words): 0 to 200 pmol/cm^2 added, 2 hours at 37° C., compared with RCP-11
Protocol: Each of the polypeptides obtained as above was diluted with a predetermined buffer such that they could be added to wells at a predetermined final concentration of 0 pmol/cm^2 to 200 pmol/cm^2. Thereafter, each of the polypeptides was added in an amount of 64 μL to a plasma-treated 96-well plate made of polystyrene (Tissue Culture-Treated, Falcon). Each of the polypeptides was allowed to adsorb onto the plate by being incubated for 2 hours at 37° C., and then the wells were washed twice with PBS, thereby obtaining surfaces coated with each of the polypeptides of RCP-1 to RCP-16.
Among the surfaces coated with each of the polypeptides obtained as above, the surfaces coated with RCP-1 and RCP-11 to RCP-16 were applied with 64 μL of a borate buffer and 64 μL of 1 N NaOH, followed by incubation for 24 hours at 80° C. and 100% humidity. After the resultant was air-cooled, 75 μL of a borate buffer was added to each well, and 50 μL of a reaction solution obtained by mixing OPA (o-phthalaldehyde: Wako Pure Chemical Industries, Ltd./methanol solution (160 mg/ml)) with N-acetyl-L-cysteine (NAC: Wako Pure Chemical Industries, Ltd.)/borate buffer solution (2 mg/ml) at a ratio of 1:100 (mass ratio) was further added thereto. After incubation for 30 minutes at 40° C., the fluorescence intensity thereof was measured by using an Envision Multilabel Counter (PerkinElmer Inc.) (excitation 355 nm/fluorescence 486 nm). A calibration curve was separately prepared from each of the polypeptide solutions so as to calculate the amount of the polypeptide adsorbed. In FIG. 1, a black rhombus indicates RCP-1, a black square indicates RCP-11, a black triangle indicates RCP-12, a black circle indicates RCP-13, a white rhombus indicates RCP-14, a white square indicates RCP-15, and a white triangle indicates RCP-16.

human iPS cells [2] = assay: Evaluation of maintenance of undifferentiated state; format: cell-based; conditions: for form of the iPS cell colony: FIGS. 3A to 3E, TeSR2, subcultured every six days; for maintenance of the undifferentiated state (NANOG staining): FIGS. 4A to 4E, after culture for 1 month
Protocol: iPS cells collected in the same manner as in <Cell adhesiveness evaluation 1> were suspended in TeSR2. The iPS cells were seeded into 6-well plate (Tissue culture-treated, Falcon), onto which each of the samples 1, 2, 5, 6, and 7 used in <Cell adhesiveness evaluation 1> was adsorbed in the same manner as in <Cell adhesiveness evaluation 1>, and cultured in a CO2 incubator at 37° C. Except for the day after the seeding, the medium was replaced every day. In the same method as described above, the cells were subcultured every six days. FIGS. 3A to 3E show forms of the iPS cells cultured on each of the samples.
After being cultured for 1 month under the conditions described above, the cells were immobilized using 4% paraformaldehyde and treated with 1% Triton-X/PBS so as to enhance the membrane permeability. After the cells were subjected to a blocking treatment using an Image IT Signal Enhancer (Invitrogen), an anti-human NANOG antibody (AF 1997, R&D Systems, Inc.), an Alexa Fluor 555 binding rabbit anti-goat IgG antibody (Invitrogen), and DAPI (Dojindo Molecular Technologies, Inc.) were added thereto for labeling, and the cells were imaged using a fluorescence microscope. FIGS. 4A to 4E show the fluorescence microscopic images.
FIGS. 3A and 4A show the iPS cells cultured on RCP-1; FIGS. 3B and 4B show the iPS cells cultured on RCP-11; FIGS. 3C and 4C show the iPS cells cultured on natural human vitronectin; FIGS. 3D and 4D show the iPS cells cultured on rLaminin-5; and FIGS. 3E and 4E show the iPS cells cultured on rLaminin-511. The scale bar in the images indicates 100 μm. In FIGS. 3A to 3E, the images on the left side are full images of the colony, and the images on the right side are magnified images. In FIGS. 4A to 4E, the images on the left side are images of the cells stained with DAPI, and the images on the right side are images of the cells stained with an anti-NANOG antibody. The scale bar in FIGS. 3 and 4 indicates 200 μm.

human iPS cells [3] = assay: Growth evaluation, growth curves over 8 days; format: cell-based; conditions: FIG. 2; 250 cells/well
Protocol: The iPS cells collected in the same manner as in <Cell adhesiveness evaluation 1> were seeded into a 96-well plate, onto which RCP-1, RCP-11, and natural human vitronectin were adsorbed, at a ratio of 250 cells/well and cultured for 8 days in a 5% CO2 incubator at 37° C. The number of adhesive cells after different days of culture was measured in the same manner as in <Cell adhesiveness evaluation 1>, thereby obtaining growth curves. […] In FIG. 2, a black rhombus indicates a case using RCP-1, and a black square indicates a case using RCP-11.

Molecule	adsorbability with respect to the plate (in words) [1]	form of the iPS cell colony (human iPS cells [2])	maintenance of the undifferentiated state (NANOG staining) (human iPS cells [2])	amount adsorbed onto the plate relative to the polypeptide including SEQ ID NO: 3 [1]	number of cells on Day 8 of culture relative to the case where RCP-1 was used (human iPS cells [3])
RCP-16: recombinant polypeptide, human vitronectin positions 269-459 (protein, Synthetic Peptide RCP-16) GPLGPSQEECEGSSLSAVFEHFAMMQRDSWEDIFELLFWGRTSAGTRQPQFISRDWHGVPGQVDAAMAGRIYISGMAPRPSLAKKQRFRHRNRKGYRSQRGHSRGRNQNSRRPSRATWLSLFSSEESNLGANNYDDYRMDWLVPATCEPIQSVFFFSGDKYYRVNLRTRRVDTVDPPYPRSIAQYWLGCPAPGHL	excellent adsorbability				
RCP-1: recombinant polypeptide, human vitronectin positions 1-55 and 269-459, methionine on the N-terminal (protein, Synthetic Peptide RCP-1) MDQESCKGRCTEGFNVDKKCQCDELCSYYQSCCTDYTAECKPQVTRGDVFTMPEDEPSQEECEGSSLSAVFEHFAMMQRDSWEDIFELLFWGRTSAGTRQPQFISRDWHGVPGQVDAAMAGRIYISGMAPRPSLAKKQRFRHRNRKGYRSQRGHSRGRNQNSRRPSRATWLSLFSSEESNLGANNYDDYRMDWLVPATCEPIQSVFFFSGDKYYRVNLRTRRVDTVDPPYPRSIAQYWLGCPAPGHL	excellent adsorbability	form specific to undifferentiated cells	strongly expressed NANOG in the entirety of the colony		
RCP-15: recombinant polypeptide, human vitronectin positions 56-459 (protein, Synthetic Peptide RCP-15) GPLGYTVYDDGEEKNNATVHEQVGGPSLTSDLQAQSKGNPEQTPVLKPEEEAPAPEVGASKPEGIDSRPETLHPGRPQPPAEEELCSGKPFDAFTDLKNGSLFAFRGQYCYELDEKAVRPGYPKLIRDVWGIEGPIDAAFTRINCQGKTYLFKGSQYWRFEDGVLDPDYPRNISDGFDGIPDNVDAALALPAHSYSGRERVYFFKGKQYWEYQFQHQPSQEECEGSSLSAVFEHFAMMQRDSWEDIFELLFWGRTSAGTRQPQFISRDWHGVPGQVDAAMAGRIYISGMAPRPSLAKKQRFRHRNRKGYRSQRGHSRGRNQNSRRPSRATWLSLFSSEESNLGANNYDDYRMDWLVPATCEPIQSVFFFSGDKYYRVNLRTRRVDTVDPPYPRSIAQYWLGCPAPGHL	excellent adsorbability				
RCP-13: recombinant polypeptide, human vitronectin positions 1-55, 56-129 (protein, Synthetic Peptide RCP-13) GPLGDQESCKGRCTEGFNVDKKCQCDELCSYYQSCCTDYTAECKPQVTRGDVFTMPEDEYTVYDDGEEKNNATVHEQVGGPSLTSDLQAQSKGNPEQTPVLKPEEEAPAPEVGASKPEGIDSRPETLHPGRPQP				about 1/4	
RCP-11: recombinant polypeptide corresponding to the sequence of natural human vitronectin, positions 1-459 (protein, Synthetic Peptide CRP-11) GPLGDQESCKGRCTEGFNVDKKCQCDELCSYYQSCCTDYTAECKPQVTRGDVFTMPEDEYTVYDDGEEKNNATVHEQVGGPSLTSDLQAQSKGNPEQTPVLKPEEEAPAPEVGASKPEGIDSRPETLHPGRPQPPAEEELCSGKPFDAFTDLKNGSLFAFRGQYCYELDEKAVRPGYPKLIRDVWGIEGPIDAAFTRINCQGKTYLFKGSQYWRFEDGVLDPDYPRNISDGFDGIPDNVDAALALPAHSYSGRERVYFFKGKQYWEYQFQHQPSQEECEGSSLSAVFEHFAMMQRDSWEDIFELLFWGRTSAGTRQPQFISRDWHGVPGQVDAAMAGRIYISGMAPRPSLAKKQRFRHRNRKGYRSQRGHSRGRNQNSRRPSRATWLSLFSSEESNLGANNYDDYRMDWLVPATCEPIQSVFFFSGDKYYRVNLRTRRVDTVDPPYPRSIAQYWLGCPAPGHL		form specific to undifferentiated cells	strongly expressed NANOG in the entirety of the colony		about 1/3
